Results: patent US12460006B2, “Antibodies against integrin alpha 11 beta 1” (Momenta Pharmaceuticals, Inc., priority 2019, dated 2025)

T1: α11β1 expressed on the surface of CHO-K1 cells (Homo sapiens, UniProt Q9UKX5)
T1 construct: expressed in transfected cells; host or cells: CHO-K1
T1 sequence (Q9UKX5 23-1188): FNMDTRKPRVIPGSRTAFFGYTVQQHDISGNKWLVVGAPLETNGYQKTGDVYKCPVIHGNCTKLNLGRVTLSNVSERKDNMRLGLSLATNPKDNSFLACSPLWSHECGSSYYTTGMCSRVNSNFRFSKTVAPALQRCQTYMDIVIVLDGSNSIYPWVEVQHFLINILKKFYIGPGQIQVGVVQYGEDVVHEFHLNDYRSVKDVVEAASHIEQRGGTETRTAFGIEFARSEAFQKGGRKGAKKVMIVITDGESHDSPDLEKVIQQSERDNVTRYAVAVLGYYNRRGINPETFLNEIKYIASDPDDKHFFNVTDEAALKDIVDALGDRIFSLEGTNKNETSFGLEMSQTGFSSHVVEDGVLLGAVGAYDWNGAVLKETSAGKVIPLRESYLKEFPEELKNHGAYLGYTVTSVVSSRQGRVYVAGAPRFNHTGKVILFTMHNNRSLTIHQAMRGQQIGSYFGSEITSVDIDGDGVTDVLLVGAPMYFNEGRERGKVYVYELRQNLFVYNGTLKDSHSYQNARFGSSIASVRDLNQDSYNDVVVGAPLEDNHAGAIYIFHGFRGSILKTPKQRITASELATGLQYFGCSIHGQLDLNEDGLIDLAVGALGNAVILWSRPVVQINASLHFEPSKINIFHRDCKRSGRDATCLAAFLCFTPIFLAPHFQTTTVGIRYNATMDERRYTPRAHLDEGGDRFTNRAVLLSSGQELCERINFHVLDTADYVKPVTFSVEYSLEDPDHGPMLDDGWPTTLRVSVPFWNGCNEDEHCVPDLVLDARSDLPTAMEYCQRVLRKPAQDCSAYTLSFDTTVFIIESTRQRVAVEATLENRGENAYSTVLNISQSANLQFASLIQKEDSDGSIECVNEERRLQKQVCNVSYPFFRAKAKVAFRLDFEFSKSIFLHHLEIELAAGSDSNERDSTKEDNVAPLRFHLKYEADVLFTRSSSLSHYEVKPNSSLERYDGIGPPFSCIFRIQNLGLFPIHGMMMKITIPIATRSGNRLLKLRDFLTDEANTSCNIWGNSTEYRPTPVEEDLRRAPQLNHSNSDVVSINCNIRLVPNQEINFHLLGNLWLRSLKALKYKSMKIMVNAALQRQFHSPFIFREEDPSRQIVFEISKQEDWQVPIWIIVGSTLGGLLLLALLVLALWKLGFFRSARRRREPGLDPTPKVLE

B1: 5A7: rabbit anti-α11β1 mAb; heavy chain SEQ ID NO: 193, light chain SEQ ID NO: 194 (antibody)
heavy: METGLRWLLLVAVLKGVQCQSLEESGGGLVQPEGSLTLACTASGFSFSSYYYICWVRQAPGTGLEWIGCINTGSDDTHYASWLKGRFTFSKASSTTLTLQMTSLTAADTATYFCARSSGSSDDAYDLWGPGTLVTVSSGQPKAPSVFPLAPCCGDTPSSTVTLGCLVKGYLPEPVTVTWNSGTLTNGVRTFPSVRQSSGLYSLSSVVSVTSSSQPVTCNVAHPATNTKVDKTVAPSTCSKPMCPPPELPGGPSVFIFPPKPKDTLMISRTPEVTCVVVDVSQDDPEVQFTWYINNEQVRTARPPLREQQFNSTIRVVSTLPIAHQDWLRGKEFKCKVHNKALPAPIEKTISKARGQPLEPKVYTMGPPREELSSRSVSLTCMINGFYPSDISVEWEKNGKAEDNYKTTPTVLDSDGSYFLYSKLSVPTSEWQRGDVFTCSVMHEALHNHYTQKSISRSPGK
light: MDTRAPTQLLGLLLLWLPGARCDVVMTQTPASVSEPVGGAVTIKCQASQSIGSNLAWYQHKPGQPPKLLIYFASSLASGVSSRFKGGRSGTQFTLTISDLECADAATYYCHCTYYPLSYVTFGGGTEVVVKGDPVAPTVLIFPPAADQVATGTVTIVCVANKYFPDVTVTWEVDGTTQTTGIENSKTPQNSADCTYNLSSTLTLTSTQYNSHKEYTCKVTQGTTSVVQSFNRGDC
B2: 3B1: rabbit anti-α11β1 mAb; heavy chain SEQ ID NO: 201, light chain SEQ ID NO: 202 (antibody)
heavy: METGLRWLLLVAVLKGVQCQEQLEESGGGLVKPEGSLTLTCKASGFDLSSGYDMCWVRQAPGKGLEWIACIYADYSGSTYYASWVNGRFTISSSTSLNTVDLKMTSLTAADTATYFCARGATGNGGYGYYFNLWGPGTLVTVSSGQPKAPSVFPLAPCCGDTPSSTVTLGCLVKGYLPEPVTVTWNSGTLTNGVRTFPSVRQSSGLYSLSSVVSVTSSSQPVTCNVAHPATNTKVDKTVAPSTCSKPMCPPPELPGGPSVFIFPPKPKDTLMISRTPEVTCVVVDVSQDDPEVQFTWYINNEQVRTARPPLREQQFNSTIRVVSTLPIAHQDWLRGKEFKCKVHNKALPAPIEKTISKARGQPLEPKVYTMGPPREELSSRSVSLTCMINGFYPSDISVEWEKNGKAEDNYKTTPTVLDSDGSYFLYSKLSVPTSEWQRGDVFTCSVMHEALHNHYTQKSISRSPGK
light: MDTRAPTQLLGLLLLWLPGARCADIVMTQTPASVSEPVGGTVTIKCQASQNINSGLAWYQQKPGQPPKLLIYKASTLASGVSSRFKGSGSGTEFTLTISDLECADAATYYCQTYYYSSSSSDNAFGGGTEVVVKGDPVAPTVLIFPPAADQVATGTVTIVCVANKYFPDVTVTWEVDGTTQTTGIENSKTPQNSADCTYNLSSTLTLTSTQYNSHKEYTCKVTQGTTSVVQSFNRGDC
B3: 10-L15: mouse anti-α11β1 mAb; VH SEQ ID NO: 119, VL SEQ ID NO: 120 (antibody, V domains shown)
VH: QVQLQQSGPELVRPGASVKMSCKASGYTFTSYWMHWVKQRPGQGLEWIGMIDPSNSETWLNQKFKDKATLNVDKSSNTAYMQLSSLTSEDSAVYYCARYDGYYDYWGQGTTLTVSS
VL: NIVLTQSPASLAVSLGQRATISCRASESVDSYGNSFMHWYQQKPGQPPKLLIYLASNVESGVPARFSGSGSRTDFTLTIDPVEADDAATYYCQQNNEDPWTFGGGTKLEIK

Columns and labels:
α1β1, α2β1 and/or α10β1 = assay: Counter-screen for cross-reactivity to other collagen receptors; format: binding, human; details: cross-reactivity to α1β1, α2β1, α10β1
How it was run: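 Cross-reactivity was checked by ELISA counter-screen on human α1β1, α2β1 and α10β1. Tested material was hybridoma clones from rats or mice immunized with α11β1, previously selected for binding to soluble human and mouse α11β1.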

[1] = biological target: T1, α11β1 expressed on the surface of CHO-K1 cells; assay: FACS antibody binding to CHO-K1 cells expressing human α11; details: binding Yes/No
How it was run: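 Wild-type or human α11-transfected CHO-K1 cells (endogenous β1) were incubated with antibody at varied concentrations for 30 min at 4° C, then secondary antibody (1:100) 30 min at 4° C. Cells were PFA-fixed and read by flow cytometry; binding EC50 estimated from FACS data.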

[2] = system: human pulmonary fibroblasts (HPFs); assay: FACS antibody binding to human pulmonary fibroblasts; details: binding Yes/No

Molecule	Off Target (α1β1, α2β1 and/or α10β1)	CHO-K1 FACS [1]	HPF FACS [2]
B1	No	Yes	No
B2	No	Yes	No
B3	No	No	No
